Numbering of substitutions follows the chain as printed.

The target of experiment [1] is T1, 1AAt::YFP^C (A. thaliana SSU 1A fused at the C-terminus to YFP^C) (Arabidopsis thaliana, UniProt P10795 56-180). The experiment is described as follows: BiFC in N. benthamiana. How it is done: (§1) Bimolecular fluorescence complementation analysis (BiFC) was carried out to provide additional information about the EPYC1-Rubisco interaction in vivo. Three Rubisco SSUs (1AAt, S2Cr and 1AAtMOD) and EPYC1, each fused at the C-terminus to either YFP^N or YFP^C were transiently co-expressed in N. benthamiana (Walter, et al., Plant J. (2004) 40: 428-438).

Experiment [2] concerns the target 1AAt::YFP^N (A. thaliana SSU 1A fused at the C-terminus to YFP^N) (Arabidopsis thaliana, UniProt P10795 56-180). Description: BiFC in N. benthamiana; a YFP signal was seen and is put down to self-assembly of the split YFP halves. How it is done: as §1
Experiment [3] concerns the target T1, 1AAt::YFP^C (A. thaliana SSU 1A fused …). The experiment is described as above. How it is done: as §1
The target of experiment [4] is T2, C. reinhardtii Rubisco small subunit 1 (S1Cr), mature (Chlamydomonas reinhardtii, UniProt P00873 46-185).
T2 construct: also called RbcS1; Cre02.g120100.t1.2
The experiment is described as follows: yeast two-hybrid (FIG. 4J). How it is done:
(§2) Competent yeast cells (Y2H Gold, Clontech) were prepared from a 50 ml culture grown in YPDA medium supplemented with kanamycin (50 μg ml⁻¹). Cells were washed with ddH2O and a lithium acetate/TE solution (100 mM LiAc, 10 mM Tris-HCl [pH 7.5], 1 mM EDTA) before re-suspending in lithium acetate/TE solution. Cells were then co-transformed with binding and activation domain vectors by mixing 50 μl of competent cells with 1 μg of each plasmid vector and a PEG solution (100 mM LiAc, 10 mM Tris-HCl [pH 7.5], 1 mM EDTA, 40% [v/v] PEG 4000). Cells were incubated at 30° C. for 30 min, then subjected to a heat shock of 42° C. for 20 min. The cells were centrifuged, re-suspended in 500 μl YPDA and incubated at 30° C. for ca 90 min, then centrifuged and washed in TE (10 mM Tris-HCl [pH 7.5], 1 mM EDTA). The pellet was re-suspended in 200 μl TE, spread onto SD-L-W (standard dextrose medium (minimal yeast medium) lacking leucine and tryptophan, Anachem) and grown for 3 days at 30° C. Ten to fifteen of the resulting colonies were pooled per co-transformation and grown in a single culture for 24 hrs. The following day 1 ml of culture was harvested, cell density (OD₆₀₀) measured, centrifuged and then diluted in TE to give a final OD₆₀₀ of 0.5 or 0.1.
(§3) Yeast cultures were then plated onto SD-L-W (yeast synthetic minimal media lacking leucine (L) and tryptophan (W)) and SD-L-W-H (yeast synthetic minimal media lacking L, W, and histidine(H)) (Anachem). Yeast expressing both binding and activation domain constructs was grown on SD-L-W to confirm presence of both plasmids. To assess interaction strength, yeast was plated onto SD-L-W-H with differing concentrations of the HIS3 inhibitor 3-aminotriazole (3-AT). These plates were then incubated for 3 days before assessing for presence or absence of growth, to perform a semi-quantitative yeast two-hybrid assay as in van Nues and Beggs (van Nues and Beggs, Genetics (2000) 157: 1451-1467). The same yeast transformation was used for each interaction study. Different colonies on the same yeast transformation plate were considered independent biological replicates (as for E. coli). Two biological replicates (top and bottom row for each interaction) were spotted from different liquid culture concentrations (0.5 and 0.1 OD). Each interaction experiment was performed at least twice.

For experiment [5], the target named is T2, C. reinhardtii Rubisco small subunit 1 …. Description: yeast two-hybrid (FIG. 5E). How it is done: as §2, §3
Experiment [6] deals with T3, 1AAtMOD (α-helices): A. thaliana SSU 1A with its two α-helices replaced with C. reinhardtii α-helices (Arabidopsis thaliana with parts of …).
T3 construct: also called pGADT7_1AAtMOD(α-helices); hybrid 1A SSU
Description: yeast two-hybrid (FIG. 5E). How it is done:
as §2, §3

B1: AtCP12::YFP^N (A. thaliana CP12 fused at the C-terminus to YFP^N) (other)
chain: AAPEGGISDVVEKSIKEAQETCAGDPVSGECVAAWDEVEELSAAASHARDKKKADGSDPLEEYCKDNPETNECRTYDN
notes: Negative control of the BiFC assay; also called pICH47732_CP12At::YFP^N; not shown: YFP^N half of split YFP
In the case of B1, the binding result in experiment [1] was “no binding”.

B2: EPYC1::YFP^C (EPYC1 fused at the C-terminus to YFP^C, with 1AAt transit peptide) (other)
chain: MATISSMRVGAASRVVVSGRVKTVKVAARGSWRESSTATVQASRASSATNRVSPTRSVLPANWRQELESLRNGNGSSSAASSAPAPARSSSASWRDAAPASSAPARSSSASKKAVTPSRSALPSNWKQELESLRSSSPAPASSAPAPARSSSASWRDAAPASSAPARSSSSKKAVTPSRSALPSNWKQELESLRSSSPAPASSAPAPARSSSASWRDAAPASSAPARSSSASKKAVTPSRSALPSNWKQELESLRSNSPAPASSAPAPARSSSASWRDAPASSSSSSADKAGTNPWTGKSKPEIKRTALPADWRKGL
notes: Expressed transiently in N. benthamiana with the 1AAt transit peptide at the N-terminus; processing in the plant not determined; also called pB7_1AAtTP::EPYC1::YFP^C; not shown: YFP^C half of split YFP (primer name YFPc155)
In the case of B2, in experiment [2], the binding result is “no binding”.

B3: EPYC1::YFP^N (EPYC1 fused at the C-terminus to YFP^N, with 1AAt transit peptide) (other)
chain: B2 chain
notes: Expressed transiently in N. benthamiana with the 1AAt transit peptide at the N-terminus; processing in the plant not determined; also called pB7_1AAtTP::EPYC1::YFP^N; not shown: YFP^N half of split YFP (primer name YFPn173)
For B3, in experiment [3], the binding result is listed as “no binding”.

B4: EPYC1 N-terminus, first to third repeat regions (N-ter+3reps) (other)
chain: MATISSMRVGAASRVVVSGRVKTVKVAARGSWRESSTATVQASRASSATNRVSPTRSVLPANWRQELESLRNGNGSSSAASSAPAPARSSSASWRDAAPASSAPARSSSASKKAVTPSRSALPSNWKQELESLRSSSPAPASSAPAPARSSSASWRDAAPASSAPARSSSSKKAVTPSRSALPSNWKQELESLRSSSPAPASSAPAPARSSSASWRDAAPASSAPARSSSASKKA
notes: also called pGBKT7_N-ter + 3reps EPYC1
Turning to B4, the binding result in experiment [4] was “binds”.

B5: synthetic EPYC1 2 α-helices 1 rep (first repeat region with an additional α-helix inserted) (designed binder)
chain: VSPTRSVLPANWRQELESLRNNWRQELESLRNGNGSSSAASSAPAPARSSSASWRDAAPASSAPARSSSASKKA
notes: also called pGBKT7_synthEPYC1 2α-helices 1rep
Regarding B5, in experiment [5], the binding result is reported as “no binding”.

B6: synthetic EPYC1 1 rep (first repeat region of EPYC1, one copy) (other)
chain: VSPTRSVLPANWRQELESLRNGNGSSSAASSAPAPARSSSASWRDAAPASSAPARSSSASKKA
notes: also called native 1 rep variant; EPYC1 1 rep (wildtype)
Turning to B6, the binding result in experiment [5] is “binds”.

B7: synthetic EPYC1 α-helix knockout B (first repeat region with a point mutation in the α-helix) (designed binder)
chain: B6 chain with E15W
notes: also called pGBKT7_synthEPYC1 α-helix knockout 2 (probably)
Regarding B7, the binding result in experiment [5] was “no binding”.

B8: synthetic EPYC1 α-helix knockout A (first repeat region with a point mutation in the α-helix) (designed binder)
chain: B6 chain with L19R
notes: also called pGBKT7_synthEPYC1 α-helix knockout 1 (probably)
B8: in experiment [5], the binding result is “no binding”.

B9: synthetic EPYC1 modified α-helix 1 rep (first repeat region with a G-Q substitution near the α-helix) (designed binder)
chain: B6 chain with G22Q
notes: also called pGBKT7_synthEPYC1 modified α-helix 1rep
Regarding B9, the binding result in experiment [5] is recorded as “binds”.

B10: EPYC1 C-terminus (C-ter) (peptide)
chain: GTNPWTGKSKPEIKRTALPADWRKGL
notes: also called C-terminal tail; pGBKT7_C-ter EPYC1
As to B10, the binding result in experiment [4] is given as “binds”.

B11: EPYC1 N-terminus, first and second repeat regions (N-ter+2reps) (other)
chain: MATISSMRVGAASRVVVSGRVKTVKVAARGSWRESSTATVQASRASSATNRVSPTRSVLPANWRQELESLRNGNGSSSAASSAPAPARSSSASWRDAAPASSAPARSSSASKKAVTPSRSALPSNWKQELESLRSSSPAPASSAPAPARSSSASWRDAAPASSAPARSSSSKKA
notes: also called pGBKT7_N-ter + 2reps EPYC1
On to B11, for which, in experiment [4], the binding result was “binds”.

B12: EPYC1 N-terminus plus first repeat region (N-ter+1rep) (other)
chain: MATISSMRVGAASRVVVSGRVKTVKVAARGSWRESSTATVQASRASSATNRVSPTRSVLPANWRQELESLRNGNGSSSAASSAPAPARSSSASWRDAAPASSAPARSSSASKKA
notes: also called pGBKT7_N-ter + 1rep EPYC1
For the molecule B12, the binding result in experiment [4] is “binds”.

B13: EPYC1 N-terminus and all four repeat regions (N-ter+4reps) (other)
chain: MATISSMRVGAASRVVVSGRVKTVKVAARGSWRESSTATVQASRASSATNRVSPTRSVLPANWRQELESLRNGNGSSSAASSAPAPARSSSASWRDAAPASSAPARSSSASKKAVTPSRSALPSNWKQELESLRSSSPAPASSAPAPARSSSASWRDAAPASSAPARSSSSKKAVTPSRSALPSNWKQELESLRSSSPAPASSAPAPARSSSASWRDAAPASSAPARSSSASKKAVTPSRSALPSNWKQELESLRSNSPAPASSAPAPARSSSASWRDAPASSSSSSADKA
notes: also called pGBKT7_N-ter + 4reps EPYC1
With B13, the binding result in experiment [4] was “binds”.

B14: EPYC1 N-terminus (N-ter) (other)
chain: MATISSMRVGAASRVVVSGRVKTVKVAARGSWRESSTATVQASRASSATNR
notes: also called pGBKT7_N-ter EPYC1
For B14, the binding result in experiment [4] is on record as “no binding”.

B15: synthetic EPYC1 4 reps (four tandem copies of the first repeat region) (designed binder)
chain: VSPTRSVLPANWRQELESLRNGNGSSSAASSAPAPARSSSASWRDAAPASSAPARSSSASKKAVSPTRSVLPANWRQELESLRNGNGSSSAASSAPAPARSSSASWRDAAPASSAPARSSSASKKAVSPTRSVLPANWRQELESLRNGNGSSSAASSAPAPARSSSASWRDAAPASSAPARSSSASKKAVSPTRSVLPANWRQELESLRNGNGSSSAASSAPAPARSSSASWRDAAPASSAPARSSSASKKA
notes: also called pGBKT7_synthEPYC1 4reps
Turning to B15, the binding result in experiment [5] and in experiment [6] was “binds” each time.

Source of the values: patent US20220282268A1 (UNIVERSITY COURT OF THE UNIVERSITY OF EDINBURGH, published 2022).
